Experimental data: patent US20230357429A1 (JANUX THERAPEUTICS, published 2023)
Where a chain is given by its changes, count along the chain named. Numbers in names are those of the source. Where two headings read alike, the source gives them in different places. Each block holds one binder with its values, some of them ahead of it. Where no end group is shown, it is not given here.

Columns and labels:
[1] = target: T1, Human TROP2 ECD (31-274 AA), biotinylated (human, UniProt P09758 31-274, biotinylated (site not stated)); assay: ELISA on immobilized TROP2
T1 construct: also called tumor-associated calcium signal transducer 2; Human TROP2-biotin
T1 sequence: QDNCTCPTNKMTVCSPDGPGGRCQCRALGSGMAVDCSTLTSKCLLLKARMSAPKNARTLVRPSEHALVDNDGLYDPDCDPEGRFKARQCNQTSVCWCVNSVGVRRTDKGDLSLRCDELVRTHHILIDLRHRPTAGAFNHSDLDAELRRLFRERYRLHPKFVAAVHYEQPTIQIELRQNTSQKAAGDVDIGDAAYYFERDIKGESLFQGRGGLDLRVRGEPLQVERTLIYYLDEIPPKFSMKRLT

[2] = target: T1, Human TROP2 ECD (31-274 AA), …; assay: ELISA on immobilized TROP2; remark: listed apart in the source
[3] = target: T1, Human TROP2 ECD (31-274 AA), …; assay: ELISA on immobilized TROP2; remark: listed apart in the source
[4] = target: T1, Human TROP2 ECD (31-274 AA), …; assay: ELISA on immobilized TROP2; binder pre-treated with MTSP1
Peptide-65 = target: T2, Peptide-65 (cysteine pairing not given here; also: biotinylated, site not given here); assay: ELISA, TCE on captured biotin-peptide
T2 construct: mask peptide for the CD3 scFv
T2 peptide: QGCGTIADPEPHCW

Peptide-68 [5] = target: T3, Peptide-68 (cysteine pairing not given here; also: biotinylated, site not given here); assay: ELISA, TCE on captured biotin-peptide
T3 construct: mask peptide for the CD3 scFv
T3 peptide: DWCWYSPDNDGLCD

Peptide-69 [6] = target: T4, Peptide-69 (cysteine pairing not given here; also: biotinylated, site not given here); assay: ELISA, TCE on captured biotin-peptide
T4 construct: mask peptide for the CD3 scFv
T4 peptide: SECLVDLQSDPCYW

Peptide-71 [7] = target: T5, Peptide-71 (cysteine pairing not given here; also: biotinylated, site not given here); assay: ELISA, TCE on captured biotin-peptide
T5 construct: mask peptide for the CD3 scFv
T5 peptide: VDCGPDGDESILCY

Peptide-72 [8] = target: T6, Peptide-72 (cysteine pairing not given here; also: biotinylated, site not given here); assay: ELISA, TCE on captured biotin-peptide
T6 construct: mask peptide for the CD3 scFv
T6 peptide: AYCGPEFDESVGCM

Peptide-74 [9] = target: T7, Peptide-74 (cysteine pairing not given here; also: biotinylated, site not given here); assay: ELISA, TCE on captured biotin-peptide
T7 construct: mask peptide for the CD3 scFv
T7 peptide: ASQCLGPEWEVCPY

Peptide-75 [10] = target: T8, Peptide-75 (cysteine pairing not given here; also: biotinylated, site not given here); assay: ELISA, TCE on captured biotin-peptide
T8 construct: mask peptide for the CD3 scFv
T8 peptide: GSACLGPEWEVCPY

[11] = target: T9, CD3 (biotinylated CD3 antigen) (human, UniProt P07766 23-126, limits assumed, biotinylated (site not stated)); assay: ELISA, TCE on captured biotin-CD3
T9 construct: also called CD3ε; human CD3

Peptide-66 [12] = target: T10, Peptide-66 (cysteine pairing not given here; also: biotinylated, site not given here); assay: ELISA, TCE on captured biotin-peptide
T10 construct: mask peptide for the CD3 scFv
T10 peptide: GSQCLGPEWEVCPY

Peptide-67 = target: T11, Peptide-67 (cysteine pairing not given here; also: biotinylated, site not given here); assay: ELISA, TCE on captured biotin-peptide
T11 construct: mask peptide for the CD3 scFv
T11 peptide: VYCGPEFDESVGCM

Peptide-68 [13] = target: T3, Peptide-68; assay: ELISA, TCE on captured biotin-peptide
Peptide-69 [14] = target: T4, Peptide-69; assay: ELISA, TCE on captured biotin-peptide
Peptide-71 [15] = target: T5, Peptide-71; assay: ELISA, TCE on captured biotin-peptide
Peptide-72 [16] = target: T6, Peptide-72; assay: ELISA, TCE on captured biotin-peptide
Peptide-73 [17] = target: T12, Peptide-73 (cysteine pairing not given here; also: biotinylated, site not given here); assay: ELISA, TCE on captured biotin-peptide
T12 construct: mask peptide for the CD3 scFv
T12 peptide: VYCGPEFDESVGCA

Peptide-74 [18] = target: T7, Peptide-74; assay: ELISA, TCE on captured biotin-peptide
Peptide-75 [19] = target: T8, Peptide-75; assay: ELISA, TCE on captured biotin-peptide
[20] = target: T9, CD3 (biotinylated CD3 antigen); assay: ELISA: biotinylated CD3 captured on neutravidin plates, TCE titrated, HRP secondary antibody
[21] = target: T9, CD3 (biotinylated CD3 antigen); assay: ELISA, TCE on captured biotin-CD3; remark: listed apart in the source
Peptide-66 [22] = target: T10, Peptide-66; assay: ELISA, TCE on captured biotin-peptide
[23] = target: T9, CD3 (biotinylated CD3 antigen); assay: ELISA: biotinylated CD3 captured on neutravidin plates, TCE titrated, HRP secondary antibody; remark: listed apart in the source
Peptide-70 [24] = target: T13, Peptide-70 (cysteine pairing not given here; also: biotinylated, site not given here); assay: ELISA, TCE on captured biotin-peptide
T13 construct: mask peptide for the CD3 scFv
T13 peptide: YLCGPDGDETLACY

Peptide-73 [25] = target: T12, Peptide-73; assay: ELISA, TCE on captured biotin-peptide
Peptide-76 = target: T14, Peptide-76 (cysteine pairing not given here; also: biotinylated, site not given here); assay: ELISA, TCE on captured biotin-peptide
T14 construct: mask peptide for the CD3 scFv
T14 peptide: YLCGPDADETLACY

Peptide-77 = target: T15, Peptide-77 (cysteine pairing not given here; also: biotinylated, site not given here); assay: ELISA, TCE on captured biotin-peptide
T15 construct: mask peptide for the CD3 scFv
T15 peptide: YLCGPDTDETLACY

Peptide-70 [26] = target: T13, Peptide-70; assay: ELISA, TCE on captured biotin-peptide
αCD3 scFv = target: T16, αCD3 scFv; assay: competition ELISA; peptide titrated and pre-incubated with a constant concentration of αCD3 scFv; blocked: binding of the scFv to plate-bound biotinylated CD3
T16 construct: also called anti-CD3 scFv; CD3 scFv (SP34.185) wt

Human TROP2 Full length = target: T17, Human TROP2 Full length (human, UniProt P09758 31-323); assay: cell-based or functional assay
T17 sequence: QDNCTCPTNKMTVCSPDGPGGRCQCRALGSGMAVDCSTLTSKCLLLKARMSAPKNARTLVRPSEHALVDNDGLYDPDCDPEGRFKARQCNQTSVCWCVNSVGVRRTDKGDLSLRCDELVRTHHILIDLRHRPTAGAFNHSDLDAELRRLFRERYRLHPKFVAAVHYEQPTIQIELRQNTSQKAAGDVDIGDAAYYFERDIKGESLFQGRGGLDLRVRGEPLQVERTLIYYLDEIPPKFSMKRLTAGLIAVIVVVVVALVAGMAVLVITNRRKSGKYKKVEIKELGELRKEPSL

Cyno TROP2 Full length = target: T18, Cyno TROP2 Full length (cynomolgus monkey, UniProt P09758 31-323 (human entry)); assay: cell-based or functional assay
T18 chain: T17 sequence with M32V, S63N, I200V, M262V, T268S

[27] = target: T19, Human TROP2 ECD (31-274 AA) (human, UniProt P09758 31-274, biotinylated); assay: ELISA; biotinylated TROP2 on neutravidin plates, PC titrated, HRP secondary
T19 construct: also called biotinylated TROP2; TROP2-biotin
T19 sequence: T1 sequence

T9 sequence (P07766 23-126 limits assumed): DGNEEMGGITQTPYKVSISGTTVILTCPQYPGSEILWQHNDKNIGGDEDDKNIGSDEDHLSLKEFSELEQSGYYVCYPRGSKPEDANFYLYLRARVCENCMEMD

- EC50 [1]: 1.41 nM
- EC50 [2]: 0.36 nM
- EC50 [3]: 0.18 nM
B1: TCE-7 (anti-CD3 wt, anti-TROP2 F108A) (bispecific antibody)
light: DIQLTQSPSSLSASVGDRVSITCKASQDVSIAVAWYQQKPGKAPKLLIYSASYRYTGVPDRFSGSGSGTDFTLTISSLQPEDFAVYYCQQHYITPLTFGAGTKVEIKRTVAAPSVFIFPPSDEQLKSGTASVVCLLNNFYPREAKVQWKVDNALQSGNSQESVTEQDSKDSTYSLSSTLTLSKADYEKHKVYACEVTHQGLSSPVTKSFNRGEC
heavy: not shown
notes: scFv on the Fab heavy chain; the entry already carries the mutation

- EC50 [4]: 0.45 nM
B2: PC-2 + MTSP1 (bispecific antibody)
light: B1 light
chain: not shown
modifications: Protease-treated product: both masks and the anti-albumin domain are cut off in the cleavable linkers.
notes: not shown: The few linker residues left at the N-terminus of each chain after the MTSP1 cut

- EC50 [4]: 0.42 nM
B3: PC-3 + MTSP1 (bispecific antibody)
light: B1 light
chain: not shown
modifications: Protease-treated product: both masks and the anti-albumin domain are cut off in the cleavable linkers.
notes: as for B2

- EC50 (Peptide-65): 6.92 nM
- EC50 (Peptide-68 [5]): 60.9 nM
- EC50 (Peptide-69 [6]): 6.94 nM
- EC50 (Peptide-71 [7]): 1.28 nM
- EC50 (Peptide-72 [8]): 1.36 nM
- EC50 (Peptide-74 [9]): 0.83 nM
- EC50 (Peptide-75 [10]): 1.05 nM
B4: TCE-11 (anti-CD3 scFv H101A; anti-TROP2 wt) (bispecific antibody)
light: B1 light
heavy: not shown
notes: scFv on the Fab heavy chain; also called TCE-11 (H101A)

- EC50 [11]: 1.24 nM
- EC50 (Peptide-66 [12]): 8.02 nM
- EC50 (Peptide-67): 5.78 nM
- EC50 (Peptide-68 [13]): 7.71 nM
- EC50 (Peptide-69 [14]): 0.76 nM
- EC50 (Peptide-71 [15]): 21.7 nM
- EC50 (Peptide-72 [16]): 5.78 nM
- EC50 (Peptide-73 [17]): 8.15 nM
- EC50 (Peptide-74 [18]): 5.9 nM
- EC50 (Peptide-75 [19]): 9.2 nM
- EC50 [20]: 0.601 nM
B5: TCE-33 (anti-CD3 scFv F240A; anti-TROP2 wt) (bispecific antibody)
light: B1 light
heavy: not shown
notes: scFv on the Fab heavy chain; also called TCE-33 (F240A)

- EC50 [21]: 0.83 nM
- EC50 (Peptide-65): 1.52 nM
- EC50 (Peptide-66 [22]): 0.63 nM
- EC50 (Peptide-69 [6]): 1.93 nM
- EC50 (Peptide-74 [9]): 0.66 nM
- EC50 (Peptide-75 [10]): 0.88 nM
B6: TCE-14 (anti-CD3 scFv F104A; anti-TROP2 wt) (bispecific antibody)
light: B1 light
heavy: not shown
notes: scFv on the Fab heavy chain; also called TCE-14 (F104A)

- EC50 [21]: 1.69 nM
- EC50 (Peptide-65): 2.71 nM
- EC50 (Peptide-69 [6]): 1.69 nM
- EC50 (Peptide-71 [7]): 0.34 nM
- EC50 (Peptide-74 [9]): 0.36 nM
B7: TCE-13 (anti-CD3 scFv N103A; anti-TROP2 wt) (bispecific antibody)
light: B1 light
heavy: not shown
notes: scFv on the Fab heavy chain; also called TCE-13 (N103A)

- EC50 [23]: 0.158 nM
B8: TCE-28 (anti-CD3 scFv S235A; anti-TROP2 wt) (bispecific antibody)
light: B1 light
heavy: not shown
notes: scFv on the Fab heavy chain

- EC50 (Peptide-70 [24]): 0.59 nM
- EC50 (Peptide-73 [25]): 4.11 nM
- EC50 (Peptide-76): 166 nM
- EC50 (Peptide-77): 1620 nM
B9: TCE-36 (anti-CD3 scFv H101A; anti-TROP2 F108A) (bispecific antibody)
light: B1 light
heavy: not shown
notes: scFv on the Fab heavy chain

- EC50 (Peptide-66 [12]): 6.28 nM
- EC50 (Peptide-67): 6.46 nM
- EC50 (Peptide-68 [13]): 2.68 nM
- EC50 (Peptide-70 [26]): 0.95 nM
- EC50 (Peptide-71 [15]): 4.69 nM
- EC50 (Peptide-73 [17]): 6.63 nM
- EC50 (Peptide-74 [18]): 5.47 nM
- EC50 (Peptide-75 [19]): 6.26 nM
- EC50 [23]: 1.81 nM
B10: TCE-26 (anti-CD3 scFv W233A; anti-TROP2 HC wt) (bispecific antibody)
light: B1 light
heavy: not shown
notes: scFv on the Fab heavy chain; also called TCE-26 (W233A)

- IC50 (αCD3 scFv): 10 nM
Binder: YLCGPDGDETLACY (also called CD3 scFv peptide mask) [Peptide-70]

- IC50 (αCD3 scFv): 50 nM
Binder: VYCGPEFDESVGCM (also called CD3 scFv peptide mask) [Peptide-67]

- CyTROP2 HEK293 EC50 (pM) (Cyno TROP2 Full length): 8250 pM
- EC50 [2]: 301 nM
- EC50 [3]: 206 nM
- EC50 [27]: 957 nM
B11: PC-18 (bispecific antibody)
light: GGVDFCALYHWPICYQGGGGSGGLSGRSDAGSPLGLAGSGGSDIQLTQSPSSLSASVGDRVSITCKASQDVSIAVAWYQQKPGKAPKLLIYSASYRYTGVPDRFSGSGSGTDFTLTISSLQPEDFAVYYCQQHYITPLTFGAGTKVEIKRTVAAPSVFIFPPSDEQLKSGTASVVCLLNNFYPREAKVQWKVDNALQSGNSQESVTEQDSKDSTYSLSSTLTLSKADYEKHKVYACEVTHQGLSSPVTKSFNRGEC
heavy: not shown
notes: Masked polypeptide complex: anti-TROP2 Fab F108A, anti-CD3 scFv wt; cleavable linkers
- H292 Cytotoxicity EC50 (pM) (Human TROP2 Full length): > 100000 pM
- HCT116 Cytotoxicity EC50 (pM) (Human TROP2 Full length): > 100000 pM
